According to patent publication US20120171209A1 (Ablynx, published 2012):

Key:
[1] = biological target: IL-6R on the surface of TF-1 cells (UniProt P08887); assay: cell-based or functional assay
[2] = biological target: cynomolgus IL-6R used in Biacore (cynomolgus monkey); assay: Biacore, periplasmic extract
[3] = biological target: T1, human soluble IL-6R, recombinant (human, UniProt P08887 20-358); assay: Biacore, periplasmic extract
T1 construct: also called human IL6-R; bio-IL-6R
T1 sequence (looked up): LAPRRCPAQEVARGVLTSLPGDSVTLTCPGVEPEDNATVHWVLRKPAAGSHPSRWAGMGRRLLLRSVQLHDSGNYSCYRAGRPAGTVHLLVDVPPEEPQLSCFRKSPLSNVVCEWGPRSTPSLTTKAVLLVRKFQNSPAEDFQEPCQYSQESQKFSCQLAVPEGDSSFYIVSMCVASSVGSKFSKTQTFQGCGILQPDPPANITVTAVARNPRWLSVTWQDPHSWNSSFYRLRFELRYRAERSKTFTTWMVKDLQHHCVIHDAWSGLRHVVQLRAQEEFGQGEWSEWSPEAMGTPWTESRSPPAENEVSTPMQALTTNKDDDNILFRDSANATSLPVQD
Description: Periplasmic extracts of representative family clones were also analyzed on Biacore. Dissociation curves were used to calculate koff rates. koff rates are depicted in Table C-6.

[4] = biological target: T2, cyno IL-6R on CHO-K1 cells, clone CyIL6R 405 (cynomolgus monkey (extracellular domain), UniProt A0A2K5WN54 60-499); assay: FMAT on CHO cells, competitor labelled Reference IgG
T2 construct: whole, on cells; chimeric construct on cells; also called CHO K1-cynomolgous IL-6R
T2 sequence: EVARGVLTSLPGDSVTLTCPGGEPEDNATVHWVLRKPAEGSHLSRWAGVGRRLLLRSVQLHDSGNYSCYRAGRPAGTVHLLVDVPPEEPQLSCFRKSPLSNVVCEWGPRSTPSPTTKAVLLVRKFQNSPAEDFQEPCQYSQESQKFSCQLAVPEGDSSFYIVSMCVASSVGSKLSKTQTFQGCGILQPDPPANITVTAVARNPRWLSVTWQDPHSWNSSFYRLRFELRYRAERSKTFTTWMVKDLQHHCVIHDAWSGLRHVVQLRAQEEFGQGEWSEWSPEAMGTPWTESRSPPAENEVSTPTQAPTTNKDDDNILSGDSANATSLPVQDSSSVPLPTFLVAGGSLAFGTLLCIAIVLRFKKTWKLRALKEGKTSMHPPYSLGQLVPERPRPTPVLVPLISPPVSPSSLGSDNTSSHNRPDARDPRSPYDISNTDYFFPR
Description: Eleven inhibitory Nanobodies were tested in competition with labelled Reference IgG for binding to
CHO cells expressing hIL-6R or cynoIL-6R.

[5] = biological target: cynomolgus soluble IL-6R, native, in cynomolgous plasma (cynomolgus monkey); assay: ELISA 2, cyno plasma sIL-6R, periplasmic extract, competitor IL-6
hybrid IL-6R = biological target: T3, hybrid IL-6R (human, with rat sequence in domain I); assay: sandwich ELISA, coated hybrid IL-6R, anti-myc-HRP detection
T3 construct: produced in HEK.EBNA cells and purified
T3 chain: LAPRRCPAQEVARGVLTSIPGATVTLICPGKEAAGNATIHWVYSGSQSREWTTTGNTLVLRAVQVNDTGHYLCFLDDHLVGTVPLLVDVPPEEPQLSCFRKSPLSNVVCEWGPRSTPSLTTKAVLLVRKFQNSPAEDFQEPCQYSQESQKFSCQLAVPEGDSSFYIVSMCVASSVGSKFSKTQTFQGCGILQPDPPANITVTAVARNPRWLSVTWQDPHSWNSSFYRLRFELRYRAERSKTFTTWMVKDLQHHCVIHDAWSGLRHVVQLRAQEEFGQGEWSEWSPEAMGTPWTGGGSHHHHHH
Description: The panel of purified Nanobodies was tested by standard sandwich ELISA with coated human IL-6R versus hybrid IL-6R (see Example 3). Anti-myc-horseradish peroxidase (AbD Serotec, Oxford, UK) was used as a detection antibody. Only Nanobodies with koff rates that were low enough to give a positive signal towards human IL-6R are depicted.

Chain of IL-6R on the surface of TF-1 cells (P08887 20-468 limits assumed): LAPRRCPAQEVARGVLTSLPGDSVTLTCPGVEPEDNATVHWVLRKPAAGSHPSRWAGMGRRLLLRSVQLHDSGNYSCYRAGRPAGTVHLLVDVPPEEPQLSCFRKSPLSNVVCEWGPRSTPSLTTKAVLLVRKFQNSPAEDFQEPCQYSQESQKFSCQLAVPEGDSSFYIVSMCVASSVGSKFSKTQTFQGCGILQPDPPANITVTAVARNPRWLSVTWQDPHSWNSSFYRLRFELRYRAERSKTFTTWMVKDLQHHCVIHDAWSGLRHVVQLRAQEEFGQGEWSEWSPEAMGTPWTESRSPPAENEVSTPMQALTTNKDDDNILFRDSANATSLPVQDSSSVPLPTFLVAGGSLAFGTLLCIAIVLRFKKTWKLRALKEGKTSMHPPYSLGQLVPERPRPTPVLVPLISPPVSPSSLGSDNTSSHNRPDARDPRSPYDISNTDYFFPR

B1: IL6RPMP105E1 (VHH)
VHH: EVQLVESGGGLVQAGGSLRLSCAASGSIFSIKAMGWYRQAPGKQRELVARITSGGSTYYADSVKGRFTISRDNAKNTVYLQMNSLKPEDTAVFYCNAIVTDSDYDLGNDYWGQGTQVTVSS
notes: family 7; also called PMP105E01; IL6R105E1
[1]
  IC50, IL-6-dependent proliferation of TF-1 cells: 6.2 nM
[2]
  koff: 0.001 s⁻¹
[3]
  koff: 0.00041 s⁻¹
[4]
  IC50: 13 nM

B2: IL6RPMP120A5 (VHH)
VHH: EVQLVESGGGLVQAGGSLSLSCATSGRTISDDTMAWFRQAPGKEREFVAIITFNGARTHYSDSVRDRFTISRDNAKNTVYLQMNSLKSEDTAVYYCAASTKYYSSTYNYIHPAFYDIWGQGTQVTVSS
notes: family 28; also called IL6R120A5
[1]
  IC50, IL-6-dependent proliferation of TF-1 cells: 5.59 nM
[4]
  IC50: 27 nM

B3: IL6RPMP103C7 (VHH)
VHH: EVQLVESGGGLVQAGGSLSLSCATSGRTISDDTMAWFRQAPGKEREFVATITFSGARTHYSDSVRDRFTISRDNAKNTVYLQMDSLKSEDTAVYYCAASTKYYSSTYNYIHPAFYDIWGQGTQVTVSS
notes: family 28
[1]
  IC50, IL-6-dependent proliferation of TF-1 cells: 61.3 nM
[4]
  IC50: 75 nM

B4: IL6RPMP103C4 (VHH)
VHH: EVQLVESGGGLVEAGGSLRLSCAAAGRTLSSYSMAWFRQAPGKEREFVAIIRGNPSRTYHSDSVKGRFTASRDNAKNTVYLQMNRLEPEDTAVYYCAADPPPFASDYSAPQSYDYWGQGTQVTVSS
notes: family 19; also called IL6R103C4
[1]
  IC50, IL-6-dependent proliferation of TF-1 cells: 15.6 nM
[2]
  koff: 0.001 s⁻¹
[3]
  koff: 0.001 s⁻¹
[4]
  IC50: 30 nM

B5: IL6RPMP107H2 (VHH)
VHH: KVQLVESGGGLVQPGGSLRLSCAASGFTFSSYAMSWVRRAPGKGLEWVSAINSDGTGSSYAPFVTGRFTASRDNAKNTLYLQMNSLKPEDTAVYYCTNSNRYDYADFSAVRGQGTQVTVSS
notes: family 27; also called IL6R107H2
[3]
  koff: 0.0001 s⁻¹
[5]
  OD450 ratio sample/blank: 0.6

B6: IL6RPMP104E4 (VHH)
VHH: EVQLVESGGGTVQAGGSLKLSCAASGRTFTNYAMGWFRQAPGKEREFVAAIAYATHFADSVKGRFTISRGNAKNTVYLQMNSLKPEDTAVYYCAADLSLSKMVSKITSDMDYWGKGTLVTVSS
notes: family 8; also called PMP104E04; IL6R104E4
[2]
  koff: 0.00045 s⁻¹
[3]
  koff: 0.00075 s⁻¹
Hybrid IL-6R
  binding result: no binding

B7: reference Fab (Fab, V domains shown)
VH: QVQLQESGPGLVRPSQTLSLTCTVSGYSITSDHAWSWVRQPPGRGLEWIGYISYSGITTYNPSLKSRVTMLRDTSKNQFSLRLSSVTAADTAVYYCARSLARTTAMDYWGQGSLVTVSS
VL: DIQMTQSPSSLSASVGDRVTITCRASQDISSYLNWYQQKPGKAPKLLIYYTSRLHSGVPSRFSGSGSGTDFTFTISSLQPEDIATYYCQQGNTLPYTFGQGTKVEIKR
notes: expressed in the periplasm of E. coli
[4]
  IC50: 0.8 nM

B8: IL6RPMP101B12 (VHH)
VHH: EVQLVESGGGLVQPGGSLRLSCAASGVTLDYYAIGWFRQAPGKEREGVSSISSNDGSTFYADSVKGRFTISRDKAKNTVYLQMNSLKPEDTAVYYCAATYLTAQAVGVPVAYYEFDYWGQGTQVTVSS
notes: family 2; also called IL6R101B12
Hybrid IL-6R
  binding result: no binding
